{"source": "paper PMC3166428", "target": "GST-TRIP8b(1b-2) full", "experiment": "pull-down"}
{"substance": "clathrin (from UniProt P11442 1-1675; P08081 1-248) (complex)", "values": [{"measurement": "fraction of loaded clathrin in the eluate (fraction of loaded clathrin)", "value": "> 0.67"}]}
